The source of these data is patent US20250154235A1 (NEURIMMUNE, published 2025).

Ends that are not written are not given here.

In test [1] the target is T1, bovine serum albumin (BSA) (bovine, UniProt P02769 25-607).
T1 construct: Control antigen in the ELISA
Briefly: direct ELISA, BSA coated at 10 ug/ml. How it is done:
(§1) The antibody capacity to bind TTR and/or misfolded, misassembled and/or aggregated forms of TTR was evaluated by means of direct ELISA assays at varying antibody concentrations. This allows to determinate for each antibody its half maximal effective concentration (EC50) in this assay, which is a commonly used proxy for the antibody binding affinity, see FIG. 2A-2C. […] Antibodies against TTR were diluted in PBS at 11 different concentrations ranging from 4 to 400 nM, and incubated in the ELISA plates overnight at 4° C. After 3 washes with PBS-T, ELISA plates were incubated with a HRP-coupled, human IgG-specific secondary antibody for 1 h at RT (1/4000 dilution). After 3 washes with PBS-T, the ELISA reactions were developed with TMB for exactly 10 min at RT and quantified by measuring the optical density at 450 nm (OD450 nm).
(§2) Subsequently, the antibody's EC50s were determined by fitting the data with a non-linear regression using the least square method in order to estimate the antibody binding affinity under these conditions.

Test [2] addresses T2, TTR 15-mer peptide GLTTEEEFVEGIYKV (human, also: covalently bound to a membrane).
T2 peptide: GLTTEEEFVEGIYKV
Briefly: pepscan membrane of 15-mer TTR peptides (peptides 15 and 16). How it is done: (§3) Additional peptides including selected mutations were also plotted on the membrane. The membrane was blocked in Roti blocking buffer overnight at 4° C., incubated first with the anti-TTR antibody diluted in blocking buffer for 2 h at RT, then with an HRP-coupled anti human IgG antibody for 45 min at RT (dilution 1/20000 in TBS). The reaction was developed with luminol and imaged by luminescence.

Test [3] has as its target T3, TTR 15-mer peptide EEEFVEGIYKVEIDT (human, also: covalently bound to a membrane).
T3 peptide: EEEFVEGIYKVEIDT
The test is described as above. How it is done: as §3

The target in test [4] is mouse TTR protein contained in wild-type mouse liver extract (mouse, UniProt P07309 21-147). Description: western blot, wild-type mouse liver extract 10 ug total protein. As to the method:
FIGS. 4A-4D: Specificity for aggregated TTR on western blot. [0047] […] To prevent dissociation of the high molecular weight aggregates, the aggregated TTR sample was crosslinked with glutaraldehyde (1%, 5 min) prior to loading on the gel.
The binding specificity and selectivity of anti-TTR antibodies was evaluated by means of western blot, see FIG. 4A-4D. In brief, human wild-type TTR protein (300 ng) in native or misfolded-aggregated conformations, and wild-type mouse liver extract (10 μg total protein) were loaded on a SDS-PAGE gel and transferred onto a nitrocellulose membrane using a semi-dry transfer system. […] After 4 washes with PBS-T for 5 min at RT, the membrane was incubated with the appropriate secondary antibody (HRP-coupled; 1/10000 dilution in blocking buffer) for 1 h at RT. After 3 washes with PBS-T and a final one in PBS, the membrane was developed with luminol and the signal intensity quantified by measuring luminescence. Shortly before use, the misfolded-aggregated TTR sample was submitted to crosslinking with glutaraldehyde (1%, 5 min, 37° C.) to prevent the dissociation of TTR aggregates during the preparation process for SDS-PAGE. In contrast, the native TTR sample was not crosslinked before use, such that the TTR homotetramer (which is the native TTR conformation under physiological conditions) almost entirely dissociated into monomers and dimers.

Test [5] concerns the target T4, misfolded-aggregated human wild-type TTR (human, UniProt P02766 21-147). Briefly: direct ELISA, misfolded-aggregated human wild-type TTR coated at 10 ug/ml. As to the method:
as §1, §2

Test [6] has as its target misfolded-aggregated recombinant V30M-TTR (human, UniProt P02766 21-147). Briefly: direct ELISA, misfolded-aggregated recombinant V30M-TTR coated at 10 ug/ml. As to the method: as §1, §2
Another test addresses native TTR-V30M (human, UniProt P02766 21-147). Description: SPR (ProteOn XPR36), antibody captured by anti-human IgG-Fc, TTR in solution 3.2-316 nM, Langmuir 1:1 fit. How it is done: (§4) SPR analysis was performed on a BioRad ProteOn XPR36 fitted with a GLM sensor chip. An anti-human antibody directed against the Fc gamma domain was covalently coupled to the detection surface and saturated with the antibody under investigation. […] The antibody-antigen association was analyzed during 180 s and the dissociation during 600 s. A Langmuir binding model (simple 1:1 association) was used to fit the data and derive the association (ka) and dissociation (kd) constants, and the affinity (KD).
(§5) An anti-human IgG-Fcγ antibody was covalently coated on the detection surfaces, and used to capture the human TTR-specific antibodies.

The target of another test is native TTR-L55P (human, UniProt P02766 21-147). Described as above. As to the method: as §4, §5
In test [7] the target is T4, misfolded-aggregated human wild-type TTR. Described as above. How it is done:
as §4, §5

Test [8] deals with T5, TTR-E42G peptide sequence WGPFA (41-45) (human).
T5 construct: Present in a mutant 15-mer spot of the pepscan membrane
T5 peptide: WGPFA
Description: pepscan membrane, mutant peptide. How it is done:
as §3

Test [9] addresses T6, TTR 15-mer peptide FRKAADDTWEPFASG (human, also: covalently bound to a membrane).
T6 peptide: FRKAADDTWEPFASG
Description: pepscan membrane of 15-mer TTR peptides (peptides 9, 10 and 11). As to the method:
as §3

Test [10] deals with T7, TTR 15-mer peptide ADDTWEPFASGKTSE (human, also: covalently bound to a membrane).
T7 peptide: ADDTWEPFASGKTSE
Described as above. As to the method: as §3

In test [11] the target is T8, TTR 15-mer peptide WEPFASGKTSESGEL (human, also: covalently bound to a membrane).
T8 peptide: WEPFASGKTSESGEL
The description is as above. How it is done: as §3

The target of test [12] is T1, bovine serum albumin (BSA). Description: dot blot on nitrocellulose, NI-301.mur35G11 10 nM, anti-mouse IgG2a-HRP detection. How it is done: FIGS. 6A-6C: Absence of binding to human plasma TTR on dot blot. [0051] […] [0052] Samples 1-6:150 ng of 1) aggregated wt-TTR, 2) native wt-TTR, 3) BSA, 4) native V30M-TTR, 5) native L55P-TTR and 6) native Y78F-TTR. [0053] Samples 7-18:2 μl of plasma collected from 7-10) controls (n=4), 11-14) asymptomatic mutation carriers (n=4) and 15-18) FAP patients (n=4).

Test [13] addresses T9, TTR 15-mer peptide TSESGELHGLTTEEE (human, also: covalently bound to a membrane).
T9 peptide: TSESGELHGLTTEEE
Description: pepscan membrane of 15-mer TTR peptides (peptides 13 and 14). How it is done: as §3

The target in test [14] is T10, TTR 15-mer peptide GELHGLTTEEEFVEG (human, also: covalently bound to a membrane).
T10 peptide: GELHGLTTEEEFVEG
The test is described as above. As to the method:
as §3

T1 sequence (P02769 25-607 limits assumed): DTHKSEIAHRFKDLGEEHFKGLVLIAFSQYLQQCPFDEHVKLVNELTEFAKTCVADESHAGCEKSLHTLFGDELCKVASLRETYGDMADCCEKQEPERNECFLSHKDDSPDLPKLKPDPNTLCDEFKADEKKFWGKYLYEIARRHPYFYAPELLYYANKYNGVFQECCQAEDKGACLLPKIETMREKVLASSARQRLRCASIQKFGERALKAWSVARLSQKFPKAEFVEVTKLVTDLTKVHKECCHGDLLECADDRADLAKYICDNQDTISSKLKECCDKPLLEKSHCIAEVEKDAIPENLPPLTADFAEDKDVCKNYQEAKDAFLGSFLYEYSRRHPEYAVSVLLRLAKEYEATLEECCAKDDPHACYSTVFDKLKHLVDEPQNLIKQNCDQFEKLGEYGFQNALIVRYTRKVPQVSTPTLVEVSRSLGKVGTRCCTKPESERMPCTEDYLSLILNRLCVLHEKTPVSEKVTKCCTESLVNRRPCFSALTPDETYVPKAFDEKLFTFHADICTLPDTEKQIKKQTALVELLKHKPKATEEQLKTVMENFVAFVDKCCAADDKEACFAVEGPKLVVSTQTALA

B1: NI-301.59F1 (antibody, V domains shown)
VH: EVQLVESGGGLVQPGGSLRLSCVASGFTFSNYWMSWVRQAPGKGLEWVANINQDSEKYYVDSVKGRFAISRDNSKNSLYLQMNSLRVEDTGVYYCARDRYCSGGRCSRGNNWFDPWGQGTLVTVSS
VL: not shown
As for B1, the binding result is “no binding (tested: up to 400 nM)” in test [1], “binds” in test [2], “binds” in [3] and “no binding (tested: 50 nM)” in test [4]. The EC50 in [5] was determined as 3 nM; in test [6] it was 15.5 nM. In addition, the Kd in the test with native TTR-V30M was determined as 16 nM; in the test with native TTR-L55P, 3.1 nM; in [7], 3.5 nM. The koff with native TTR-V30M turned out to be 0.00022 s⁻¹; in the test with native TTR-L55P, 0.00015 s⁻¹; in test [7], 0.00034 s⁻¹. In addition, the kon in the test with native TTR-V30M was 13000 M⁻¹ s⁻¹; with native TTR-L55P it was 51000 M⁻¹ s⁻¹; in [7], 97000 M⁻¹ s⁻¹.

B2: NI-301.37F1 (antibody, V domains shown)
VH: QVQLQESGPGLVKPSETLSLTCSVSGGSIISRSSYWGWIRQPPGKGLEWIGGIYHSGNTYDNPSLKSRLTMSVDTSKNQFSLNLRSVTAADTAVYYCARIVPGGDAFDIWGQGTMVTVSS
VL: DIQMTQSPSSLSASVGDRVTIACRASQSVGTYLNWYQQKRGKAPKLLIFAASSLQSGVPSRFSGSGSGTDFTLTISSLQPEDFATYYCQQSYSSPPTFGQGTKVEIK
B2: the binding result in test [8] is reported as “no binding (tested: 50 nM)”; in test [1], “no binding (tested: up to 400 nM)”; in test [9], “binds”; in [10], “binds”; in test [11], “binds”; in test [4], “no binding (tested: 50 nM)”.

B3: mouse chimeric antibody NI-301.mur35G11 (antibody, V domains shown)
VH: EVQLVESGGGLVQPGGSLRLSCVASGFTFSSYAMSWVRQVPGKGLEWVSSISGSGDTTKYTDSVKGRFTISRDNSKNTVFLQMSSLRAEDTALYYCVKDGSGRIDPFALWGQGTMVTVSS
VL: EIVMTQSPLSLPVTLGQPASISCRSSRSLVYSDGNIYLNWFQQRPGQSPRRLIYKVSNRDSGVPDRFSGSGSDTDFTLRISRVEAEDVGVYYCMQGTHWPRTFGQGTKVEIK
notes: detected with anti-mouse IgG2a secondary antibody; also called murine chimeric anti-TTR antibody
Regarding B3, in test [12], the binding result is given as “no binding (tested: 10 nM)”.

B4: NI-301.35G11 (antibody, V domains shown)
VH: EVQLVESGGGLVQPGGSLRLSCVASGFTFSSYAMSWVRQVPGKGLEWVSSISGSGDTTKYTDSVKGRFTISRDNSKNTVFLQMSSLRAEDTALYYCVKDGSGRIDPFALWGQGTMVTVSS
VL: EIVMTQSPLSLPVTLGQPASISCRSSRSLVYSDGNIYLNWFQQRPGQSPRRLIYKVSNRDSGVPDRFSGSGSDTDFTLRISRVEAEDVGVYYCMQGTHWPRTFGQGTKVEIK
notes: also called NI.35G11
Take B4: the binding result is listed as “no binding (tested: up to 400 nM)” in test [1], “binds” in test [13], “binds” in test [14] and “no binding (tested: 50 nM)” in test [4].
